Data as given in the supplement of paper PMC12764529.
± gives the half width of the 95% confidence interval.

Columns and labels:
[1] = folding stability dG unfold from trypsin proteolysis; higher = more stable
Description: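 Folding stability of de novo designed mini-proteins (<80 aa, no Cys; designed by TrROS, TrMRF, ProteinMPNN and the joint model) was measured by cDNA display proteolysis with trypsin and chymotrypsin. Each protease was used at 11 concentrations in a threefold dilution series plus a no-protease condition. K50 was inferred by Bayesian fitting of sequencing counts, and dG unfold was derived against a sequence-predicted unfolded-state K50 (Tsuboyama et al. method). Sequences shown include variable-length N-terminal GS-type padding (SAGGSAGG...) inside a display construct carrying a PA tag. Rows were kept only if the AF2 dimer inter-PAE was >15, to exclude likely homo-oligomers.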

[2] = folding stability dG unfold (combined trypsin and chymotrypsin); higher = more stable
Summary of the method: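 Bayesian fitting of sequencing counts gave K50 for each design. Unfolding free energy followed by setting this against a sequence-predicted unfolded-state K50 and a shared folded-state K50, either per protease or with trypsin and chymotrypsin combined. The designs, under 80 residues and lacking cysteine, were digested in a PA-tagged cDNA display format at 11 threefold-diluted protease concentrations and without protease, and only those with AlphaFold2 dimer inter-PAE above 15 were kept.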

Sequence: SAGGSAGGSAGGSSTITIGDSEVSVTADPKAPVATASYPASGVTFTITRPDASVTITPTPSAGGSAGGSAGG [r7_156_JUSTAS]
- folding stability dG unfold [1]: -0.783 ± 0.42 kcal/mol
- folding stability dG unfold [2]: < -1 kcal/mol

Sequence: SAGGSAGGSAGGTAKELVNEIAKEFMQDHPNQEIPIEVEVRTNGKPVKAEIPIRLPPGQSAGGSAGGSAGGS [r10_1204_TrROS]
- folding stability dG unfold [1]: -0.402 ± 0.07 kcal/mol
- folding stability dG unfold [2]: < -1 kcal/mol

Sequence: SAGGSAGGSAGGWVFDSDDYPKFQDAAKDHGLKPKSINDDDNTMTVDPEDPNRIRDAINESAGGSAGGSAGG [r7_285_TrROS]
- folding stability dG unfold [1]: -0.147 ± 0.21 kcal/mol
- folding stability dG unfold [2]: < -1 kcal/mol

Sequence: SAGGSAGGSAGKITIRNPENGYAIKIKFGDKEKTIPIDPDQIDEFLEKLPGIKVEPYPWKSAGGSAGGSAGG [r11_57_TrROS]
- folding stability dG unfold [1]: -0.574 ± 0.2 kcal/mol
- folding stability dG unfold [2]: -0.899 ± 0.59 kcal/mol

Sequence: SAGGSAGGSAGMEDLVTVTETVETTDTLRDEGGTPTGTTTTTTTVTKLLSPEKVAALKEASAGGSAGGSAGG [r11_620_JUSTAS]
- folding stability dG unfold [1]: -0.116 ± 0.021 kcal/mol
- folding stability dG unfold [2]: -0.85 ± 0.23 kcal/mol

Sequence: SAGGSAGGSAGMKIVAPSKEEAEKIAKELAKELGLPDEIKDLEIEVIPLKPTPDGGFIPYSAGGSAGGSAGG [r17_237_TrMRF]
- folding stability dG unfold [1]: -0.168 ± 0.17 kcal/mol
- folding stability dG unfold [2]: -0.715 ± 0.22 kcal/mol

Sequence: SAGGSAGGSAGMKTYTVPLPGGDPALIEQTAQDIVEKIPGLEDHEVKVDAGDDGTLTIVESAGGSAGGSAGG [r17_324_JUSTAS]
- folding stability dG unfold [1]: -0.736 ± 0.16 kcal/mol
- folding stability dG unfold [2]: < -1 kcal/mol

Sequence: SAGGSAGGSAGMKVVLTVPESEAAKPEVLEAKAQEIKEKHPGEEVEVEFITNPFPPGTPLSAGGSAGGSAGG [r11_743_JUSTAS]
- folding stability dG unfold [1]: 0.456 ± 0.019 kcal/mol
- folding stability dG unfold [2]: -0.108 ± 0.1 kcal/mol

Sequence: SAGGSAGGSAGMTLEEKLKEAEEKHKKEGGPATITITDPTATGVSKTYTVTIENEGLKVESAGGSAGGSAGG [r11_954_JUSTAS]
- folding stability dG unfold [1]: 0.034 ± 0.055 kcal/mol
- folding stability dG unfold [2]: -0.132 ± 0.36 kcal/mol

Sequence: SAGGSAGGSAGPKPEYIRIKIEMWNPDGNPREHDFTFPPGHKDQIENLADNYGFRVSIEKSAGGSAGGSAGG [r11_603_TrROS]
- folding stability dG unfold [1]: 0.278 ± 0.13 kcal/mol
- folding stability dG unfold [2]: -0.281 ± 0.29 kcal/mol

Sequence: SAGGSAGGSAGPKPIEFEDPDNGRKIEYWPEENQISIENPGDGKEKEYPMDSPEELKEWMSAGGSAGGSAGG [r11_936_TrROS]
- folding stability dG unfold [1]: 0.117 ± 0.17 kcal/mol
- folding stability dG unfold [2]: < -1 kcal/mol

Sequence: SAGGSAGGSAGPMIKIGSTTRPFTPPLGGRLEYAPIDVDQSEEVAKEVAEELKPKGVIVNLSAGGSAGGSAG [r3_157_JUSTAS]
- folding stability dG unfold [1]: -0.774 ± 0.35 kcal/mol
- folding stability dG unfold [2]: < -1 kcal/mol

Sequence: SAGGSAGGSAGPPIYWRIEFENPGKKHTMTIPRDMPVDDIKEIADEIAKRFPMPISIEPVSAGGSAGGSAGG [r11_515_TrROS]
- folding stability dG unfold [1]: -0.335 ± 0.22 kcal/mol
- folding stability dG unfold [2]: -0.565 ± 0.25 kcal/mol

Sequence: SAGGSAGGSAGPPVLVSINPDENATVEVRTRPDGKPVLLFTVPKTGEVLVVHPDGKIDNSSAGGSAGGSAGG [r11_601_TrMRF]
- folding stability dG unfold [1]: -0.0916 ± 0.17 kcal/mol
- folding stability dG unfold [2]: -0.246 ± 0.35 kcal/mol

Sequence: SAGGSAGGSAGSKTITFIMVHPDDGYISDMEMRYTDNGIEMEMEWIPVPKEDAEELKDLISAGGSAGGSAGG [r11_47_TrROS]
- folding stability dG unfold [1]: 0.225 ± 0.036 kcal/mol
- folding stability dG unfold [2]: -0.044 ± 0.19 kcal/mol

Sequence: SAGGSAGGSAGTSTTVTEKPDPNSNRTYTTTTVERTTADGTTTTVTTTVYPDSTTSTTTASAGGSAGGSAGG [r11_987_JUSTAS]
- folding stability dG unfold [1]: 0.557 ± 0.094 kcal/mol
- folding stability dG unfold [2]: 0.0978 ± 0.2 kcal/mol

Sequence: SAGGSAGGSAHTIEDPDNNKKIEVHPPPNGNYMVEIERPDNGEKKTIMMPPDDVEEALNQISAGGSAGGSAG [r3_162_TrROS]
- folding stability dG unfold [1]: -0.139 ± 0.2 kcal/mol
- folding stability dG unfold [2]: < -1 kcal/mol

Sequence: SAGGSAGGSAKEVEVEVEEELPGGYYRATVRLPGEEKPLEVVVKGPREDALKAAEELAKEESAGGSAGGSAG [r3_104_TrMRF]
- folding stability dG unfold [1]: -0.0768 ± 0.16 kcal/mol
- folding stability dG unfold [2]: < -1 kcal/mol

Sequence: SAGGSAGGSAKITITAPPGETYRIKVKVKNENGEWKEVTRTIKVGEPLEDIEEVEIERIEPESAGGSAGGSA [r18_223_TrROS_Hall]
- folding stability dG unfold [1]: 0.0462 ± 0.12 kcal/mol
- folding stability dG unfold [2]: -0.146 ± 0.27 kcal/mol

Sequence: SAGGSAGGSAMIVVTLDDPEEAREAVRARFGPEVEITPLETTTVGDRVFTKIAVRVPPELASAGGSAGGSAG [r3_87_JUSTAS]
- folding stability dG unfold [1]: -0.351 ± 0.19 kcal/mol
- folding stability dG unfold [2]: -0.395 ± 0.24 kcal/mol

Sequence: SAGGSAGGSAMLKVTVKVPGTSKDYDFNVPESVGKEEAEKRLEEEYPGAEVTEIVEIPGEELSAGGSAGGSA [r18_242_JUSTAS]
- folding stability dG unfold [1]: 0.545 ± 0.027 kcal/mol
- folding stability dG unfold [2]: -0.469 ± 0.26 kcal/mol

Sequence: SAGGSAGGSAMPIPALVLVERPLPDGETEEREIPVIVEPDKIDEIIEEAEKEGYKVKEVKASAGGSAGGSAG [r3_453_TrMRF]
- folding stability dG unfold [1]: -0.271 ± 0.06 kcal/mol
- folding stability dG unfold [2]: < -1 kcal/mol

Sequence: SAGGSAGGSAMRVVEITVPPENPEELKREIAEAFPFEVEGEEVGDGSVTLRFILPEDVELGSAGGSAGGSAG [r3_457_TrMRF]
- folding stability dG unfold [1]: 0.142 ± 0.097 kcal/mol
- folding stability dG unfold [2]: -0.212 ± 0.13 kcal/mol

Sequence: SAGGSAGGSAPAEFPIEILEVERNPGNPMVEVGIKIPGDGRYIKIHFPPNGKIDIELVPLPSAGGSAGGSAG [r3_294_TrROS]
- folding stability dG unfold [1]: 0.265 ± 0.1 kcal/mol
- folding stability dG unfold [2]: -0.29 ± 0.16 kcal/mol

Sequence: SAGGSAGGSASSSVTITNRVTNPDTGLRYITIPSKGERVTLSPDESATIPVPPDAPVSVLGSSAGGSAGGSA [r18_329_JUSTAS]
- folding stability dG unfold [1]: -0.694 ± 0.24 kcal/mol
- folding stability dG unfold [2]: < -1 kcal/mol

Sequence: SAGGSAGGSATITISLGPPEYIEVYDPANGVKRKFPASVPKEEVAAEIEKEYPDTPVVFTTDASAGGSAGGS [r12_423_JUSTAS]
- folding stability dG unfold [1]: 0.394 ± 0.06 kcal/mol
- folding stability dG unfold [2]: -0.172 ± 0.32 kcal/mol

Sequence: SAGGSAGGSAVKVIPFPFNEALDLLNSGEPKEIHVVGPPGWYMTVQFNPPDNNIEIDDPVPPSAGGSAGGSA [r18_400_TrROS]
- folding stability dG unfold [1]: 0.732 ± 0.043 kcal/mol
- folding stability dG unfold [2]: 0.194 ± 0.14 kcal/mol

Sequence: SAGGSAGGSEGQPIIIKIKMENPGNGKKHKFDIMVPPGFKNAEEQANRLMNNFGPVKDVEIYPSAGGSAGGS [r12_942_TrROS]
- folding stability dG unfold [1]: -0.846 ± 0.3 kcal/mol
- folding stability dG unfold [2]: < -1 kcal/mol

Sequence: SAGGSAGGSEPDFVVVDIPFPPDVPLEALVEFARSLPSVVVNLVDEEGRPVSIALPREAVERLASAGGSAGG [r6_791_TrMRF]
- folding stability dG unfold [1]: -0.347 ± 0.15 kcal/mol
- folding stability dG unfold [2]: < -1 kcal/mol

Sequence: SAGGSAGGSETSIVFLEEEVLVEEEITLYRDGTPTRERRVRTERVVIRVPVKPEEDVNNPLLLSAGGSAGGS [r12_713_JUSTAS]
- folding stability dG unfold [1]: -0.765 ± 0.82 kcal/mol
- folding stability dG unfold [2]: < -1 kcal/mol

Sequence: SAGGSAGGSGKTIIIPLPNGNVIKVEVEEGSVKITYPKPKKELIKVENPKNALKNIKTYSYKGSAGGSAGGS [r12_32_TrMRF]
- folding stability dG unfold [1]: -0.176 ± 0.32 kcal/mol
- folding stability dG unfold [2]: < -1 kcal/mol

Sequence: SAGGSAGGSGSMAEVEAIVERAKELGLVPKSITTDPATNKPVVDLQPPSPELLEADPEILALLSAGGSAGGS [r12_482_JUSTAS]
- folding stability dG unfold [1]: -0.585 ± 0.23 kcal/mol
- folding stability dG unfold [2]: < -1 kcal/mol

Sequence: SAGGSAGGSKIEMMHAIRDNGKPFFVRITMDIQPQKDPNGEPKVNFEPKIEIYDPDGKPIFEISAGGSAGGS [r20_224_TrROS]
- folding stability dG unfold [1]: 0.641 ± 0.14 kcal/mol
- folding stability dG unfold [2]: 0.392 ± 0.3 kcal/mol

Sequence: SAGGSAGGSMEIVSTGSKEDAEEAVKEKVAAGEKARVVLRSPTDPTPVSEEEVTISEEELKEASAGGSAGGS [r12_241_JUSTAS]
- folding stability dG unfold [1]: -1.61 ± 0.88 kcal/mol
- folding stability dG unfold [2]: < -1 kcal/mol

Sequence: SAGGSAGGSMERLENGIERIRLLVRFPERDEVRLIEIPLDNVTPEEIIERARELGAEEIELLESAGGSAGGS [r12_792_TrMRF]
- folding stability dG unfold [1]: 0.11 ± 0.26 kcal/mol
- folding stability dG unfold [2]: -0.545 ± 0.22 kcal/mol

Sequence: SAGGSAGGSMIVEKKYSLDPAKGTITTTTTTVTPVPNGDSLIVSTTTTTKSVSPSESPDISSSSAGGSAGGS [r12_700_JUSTAS]
- folding stability dG unfold [1]: -0.39 ± 0.066 kcal/mol
- folding stability dG unfold [2]: -0.553 ± 0.24 kcal/mol

Sequence: SAGGSAGGSMKVITVPLPDGGTTTYEVEKGKVTITYPPSVTKEIEVPDPSKAIENIETVSYKSSAGGSAGGS [r12_32_JUSTAS]
- folding stability dG unfold [1]: -0.76 ± 0.13 kcal/mol
- folding stability dG unfold [2]: < -1 kcal/mol

Sequence: SAGGSAGGSMLTITVKTTDPAKGGSATTVIPVPVPGSVEEARELAEEIKKKLPPEVVEITVLESAGGSAGGS [r12_871_JUSTAS]
- folding stability dG unfold [1]: -0.294 ± 0.19 kcal/mol
- folding stability dG unfold [2]: < -1 kcal/mol

Sequence: SAGGSAGGSMPLRLAPVPIFLPEEEAVPVIEKLIEEGTEGGVGLIVPNVISPEEAGVHPDEPVSAGGSAGGS [r12_93_TrMRF]
- folding stability dG unfold [1]: -0.263 ± 0.08 kcal/mol
- folding stability dG unfold [2]: < -1 kcal/mol

Sequence: SAGGSAGGSMPVEVKFTVEKDPSTDLLTVTVTRPGGEVTPITYPDPNNLEAAKAAAEALAKASSAGGSAGGS [r12_1012_JUSTAS]
- folding stability dG unfold [1]: 0.365 ± 0.076 kcal/mol
- folding stability dG unfold [2]: -0.2 ± 0.41 kcal/mol

Sequence: SAGGSAGGSMVEIDPDNLVLTIVDPETGKAAVITAPPTADGTPVIKDVVVFDPDGNPHTFTVDSAGGSAGGS [r12_952_TrMRF]
- folding stability dG unfold [1]: 0.666 ± 0.022 kcal/mol
- folding stability dG unfold [2]: 0.13 ± 0.091 kcal/mol

Sequence: SAGGSAGGSPPYIRVKIEFQNPNGQERKFKITIPPDQPLSQAKDIAPDFAKNGYPVRIEDIEISAGGSAGGS [r12_804_TrROS]
- folding stability dG unfold [1]: -0.209 ± 0.17 kcal/mol
- folding stability dG unfold [2]: < -1 kcal/mol
